Our source for the Km values is publication PMC4198189, “Human Valacyclovir Hydrolase/Biphenyl Hydrolase-Like Protein Is a Highly Efficient Homocysteine Thiolactonase” (PLoS ONE, 2014).

Substrate in the data set: N[C@H]1CCSC1=O
In words: purified protein. The settings on record: Dulbecco's PBS with 0.32 mM DTNB, 37 °C, partially purified native enzyme. In kind it is biochemical, Homo sapiens.

B1: human liver BPHL (purified human liver HCTLase) (Homo sapiens) (protein)
chain: SVTSAKVAVNGVQLHYQQTGEGDHAVLLLPGMLGSGETDFGPQLKNLNKKLFTVVAWDPRGYGHSRPPDRDFPADFFERDAKDAVDLMKALKFKKVSLLGWSDGGITALIAAAKYPSYIHKMVIWGANAYVTDEDSMIYEGIRDVSKWSERTRKPLEALYGYDYFARTCEKWVDGIRQFKHLPDGNICRHLLPRVQCPALIVHGEKDPLVPRFHADFIHKHVKGSRLHLMPEGKHNLHLRFADEFNKLAEDFLQ
notes: native, partially purified from pooled human liver (five donors); about 30 kDa by gel filtration; identified by MS, with ACAA1 and hydroxyacyl-CoA dehydrogenase bands co-purifying
In the case of B1, the Km worked out at 3.92 mM.
